Reference: patent publication US6096520A, “Brain glycogen phosphorylase cancer antigen” (Ludwig Institute for Cancer Research, priority 1998, dated 2000)

B1: SEQ ID NO:1: shortest exonuclease III fragment of brain glycogen phosphorylase nucleic acid, ending 100 bp after the start codon (nucleic acid)
DNA: ATGGGCGAACCGCTGACGGACAGCGAGAAGCGGAAGCAGATCAGCGTGCGCGGCCTGGCGGGGCTAGGCGACGTGGCCGAGGTGCGGAAGAGCTTCAACCGGCACTTGCA
modifications: chemistry not fully specified
notes: shortest exonuclease III fragment of brain glycogen phosphorylase nucleic acid, ending 100 bp after the start codon
B2: SEQ ID NO:3: fragment of brain glycogen phosphorylase nucleic acid ending at position 140 (nucleic acid)
DNA: ATGGGCGAACCGCTGACGGACAGCGAGAAGCGGAAGCAGATCAGCGTGCGCGGCCTGGCGGGGCTAGGCGACGTGGCCGAG
modifications: chemistry not fully specified
B3: SEQ ID NO:2: fragment of brain glycogen phosphorylase nucleic acid ending at position 161 (nucleic acid)
DNA: ATGGGCGAACCGCTGACGGACAGCGAGAAGCGGAAGCAGATCAGCGTGCGCGGCCTGGCGGGGCTAGGCGACGTGGCCGAGGTGCGGAAGAGCTTCAACCGG
modifications: chemistry not fully specified

These molecules were tested on antigen recognized by CTL 246/76 (assay: TNF release from CTL 246/76 provoked by HOB cells transfected with cDNA fragment and HLA-A2). Conditions: fragment cotransfected with HLA-A2 into HOB cells.
Assay type: cell-based, human
Method: The transfection of HOB cells was made in duplicate wells. Briefly, samples of HOB cells were seeded, at 15,000 cells/well into tissue culture flat bottom microwells, in DMEM supplemented with 10% fetal calf serum. The cells were incubated overnight at 37° C., medium was removed and then replaced by 100 μl/well total volume of DMEM medium containing 20% Nu-Serum (Collaborative Research, Bedford, Mass.), 300 μg/ml DEAE-dextran, and 200 μM chloroquine, plus 100 ng of the LB373-MEL cDNA library cloned in pcDNAI/Amp and 50 ng of HLA-A2 cloned in pcDNAI/Amp. Following four hours of incubation at 37° C., the medium was removed, and replaced by 50 μl of PBS containing 10% dimethyl sulfoxide (DMSO). This medium was removed after two minutes and replaced by 200 μl of DMEM supplemented with 10% FCS.
Following this change in medium, HOB cells were incubated for 48 hours at 37° C. The transfectants then were screened with CTL 246/76. After first removing the medium, 2000 CTL 246/76 cells were added to each well in 100 μl of medium containing 25 U/ml IL-2. The amount of TNF present in the supernatant was then measured by testing its cytotoxicity for WEHI 164.13 cells. Most pools gave a TNF concentration below 5 pg/ml. cDNAs from pools which gave higher concentrations in both of the duplicate wells were cloned in bacteria. Their plasmid DNA was extracted and transfected into HOB cells with HLA-A2. The transfectants were screened with CTL 246/76. One cDNA clone gave a high TNF production by CTL 246/76. The cDNA was sequenced, compared with DNA sequence databases and determined to encode brain glycogen phosphorylase.
Fragments of the brain glycogen phosphorylase cDNA were prepared by exonuclease III digestion from the 3' end of the cDNA according to art standard procedures, were cloned into an expression vector and transfected into HOB cells with HLA-A2 as described above. As a positive control, the brain glycogen phosphorylase cDNA was cotransfected with HLA-A2 into HOB cells. These transfectants were used to provoke release of TNF from CTL 246/76 cells.
Shorter fragments were generated by PCR. […]

Molecule | confers expression of the antigen recognized by CTL 246/76
B1 | able to confer expression of the antigen
B2 | did not confer expression of the antigen
B3 | did confer expression of the antigen
